In this assay the target is T1, extracellular protein domain (position 43-300) of human CD38 (Homo sapiens, UniProt P28907).
T1 construct: human CD38, extracellular domain, position 43-300; also called CD38 (extracellular domain); source: kindly provided by Dr. Hanna Tegel
Nature of the assay: SPR; ProteOn XPR36; scFv_(CD38) sortase-coupled to a G5-silk coating on bare gold outside the instrument; CD38 extracellular domain (printed: 200 mM) in PBS pH 7.4/0.01% Tween 20 flown at 25 uL/min, 30 min. Particulars: both partners purified. Background: SPR reads the build-up and loss of mass on a sensor chip optically.

B1: scFv_(CD38)-silk (scFv_(CD38) sortase-coupled to the N-terminus of G5-FN-4RepCT), as silk coating (scFv, V domains shown)
VH: QVQLVQSGAEVKKPGSSVKVSCKPSGGTFRSYAISWVRQAPGQGLEWMGRIIVFLGKVNYAQRFQGRVTLTADKSTTTAYMELSSLRSEDTAVYYCTGEPGARDPDAFDIWGQGTMVTVSS
VL: DIQMTQSPSSLSASVGDRVTITCRASQGIRSWLAWYQQKPEKAPKSLIYAASSLQSGVPSRFSGSGSGTDFTLTISSLQPEDFATYYCQQYNNYPLTFGGGTKVEIK
notes: VH of the anti-CD38 scFv; 3xG4S linker, written out from the printed name; VL of the anti-CD38 scFv; what is left of the sortase recognition tag LPETGG after sortase A cleaves between threonine and glycine; the five N-terminal glycines of G5-silk, told in words; 4RepCT, a miniature form of the major ampullate spidroin 1 (MaSp 1) from Euprosthenops australis; The GG-His6 end is lost on coupling; …
Regarding B1, the binding result is listed as “binds”.

(Values after publication PMC11840766 (ACS Omega, 2025).)
